Consider two molecules from US20180179267A1 (published 2018).

Experiment [1] deals with T1, LukG_TCH1516.
T1 chain: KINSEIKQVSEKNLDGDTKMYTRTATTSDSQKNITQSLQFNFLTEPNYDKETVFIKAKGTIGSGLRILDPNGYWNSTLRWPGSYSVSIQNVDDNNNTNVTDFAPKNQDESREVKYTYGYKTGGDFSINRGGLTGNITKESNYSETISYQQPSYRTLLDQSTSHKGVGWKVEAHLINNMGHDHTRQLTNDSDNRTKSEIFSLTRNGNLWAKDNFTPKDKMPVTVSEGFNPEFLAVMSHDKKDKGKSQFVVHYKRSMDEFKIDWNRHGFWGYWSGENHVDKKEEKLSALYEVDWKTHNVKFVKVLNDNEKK
In words: ForteBio. In general terms: BLI is a label-free optical method that tracks binding on a fibre tip over time.

Experiment [2] has as its target T2, LukGH of S. aureus USA300 TCH1516 (UniProt Q2FFA2 28-351; P21224 30-338).
T2 chain 1: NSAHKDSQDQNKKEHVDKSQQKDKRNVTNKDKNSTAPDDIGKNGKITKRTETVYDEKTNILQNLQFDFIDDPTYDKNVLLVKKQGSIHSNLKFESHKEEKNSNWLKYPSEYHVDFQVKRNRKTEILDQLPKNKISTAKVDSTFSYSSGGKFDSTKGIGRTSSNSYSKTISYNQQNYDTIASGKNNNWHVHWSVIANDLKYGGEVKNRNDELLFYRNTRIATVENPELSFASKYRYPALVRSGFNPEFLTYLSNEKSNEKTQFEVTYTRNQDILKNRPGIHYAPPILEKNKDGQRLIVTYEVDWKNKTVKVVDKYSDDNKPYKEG
T2 chain 2: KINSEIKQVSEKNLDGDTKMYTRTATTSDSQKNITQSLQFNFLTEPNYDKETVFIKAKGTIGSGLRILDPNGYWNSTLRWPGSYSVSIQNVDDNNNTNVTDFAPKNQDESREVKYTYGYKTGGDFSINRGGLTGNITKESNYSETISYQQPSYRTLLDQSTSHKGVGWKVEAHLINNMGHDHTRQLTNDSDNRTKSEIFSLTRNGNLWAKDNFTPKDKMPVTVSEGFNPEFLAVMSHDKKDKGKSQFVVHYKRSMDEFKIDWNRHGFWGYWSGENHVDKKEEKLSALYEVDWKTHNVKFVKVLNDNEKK
In words: ForteBio.

Experiment [3] addresses T3, LukGH_MSHR1132.
T3 chain 1: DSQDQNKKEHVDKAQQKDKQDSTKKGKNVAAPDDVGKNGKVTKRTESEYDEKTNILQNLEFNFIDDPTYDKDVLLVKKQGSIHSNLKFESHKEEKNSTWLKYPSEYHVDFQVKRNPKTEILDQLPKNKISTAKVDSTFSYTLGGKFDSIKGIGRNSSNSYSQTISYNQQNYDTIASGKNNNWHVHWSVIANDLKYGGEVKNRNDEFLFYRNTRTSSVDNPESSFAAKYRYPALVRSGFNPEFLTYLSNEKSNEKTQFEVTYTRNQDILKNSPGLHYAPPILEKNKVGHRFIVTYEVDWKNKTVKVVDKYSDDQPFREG
T3 chain 2: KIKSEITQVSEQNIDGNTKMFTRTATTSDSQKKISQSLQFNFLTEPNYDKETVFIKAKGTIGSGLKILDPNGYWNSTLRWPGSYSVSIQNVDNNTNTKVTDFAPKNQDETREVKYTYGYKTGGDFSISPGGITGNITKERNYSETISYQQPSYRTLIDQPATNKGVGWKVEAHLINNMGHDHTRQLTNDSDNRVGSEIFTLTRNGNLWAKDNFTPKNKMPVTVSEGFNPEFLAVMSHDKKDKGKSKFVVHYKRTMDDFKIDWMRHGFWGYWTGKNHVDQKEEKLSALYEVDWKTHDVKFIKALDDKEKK
Description: ForteBio.

The target of experiment [4] is T4, LukGH_H19.
T4 chain 1: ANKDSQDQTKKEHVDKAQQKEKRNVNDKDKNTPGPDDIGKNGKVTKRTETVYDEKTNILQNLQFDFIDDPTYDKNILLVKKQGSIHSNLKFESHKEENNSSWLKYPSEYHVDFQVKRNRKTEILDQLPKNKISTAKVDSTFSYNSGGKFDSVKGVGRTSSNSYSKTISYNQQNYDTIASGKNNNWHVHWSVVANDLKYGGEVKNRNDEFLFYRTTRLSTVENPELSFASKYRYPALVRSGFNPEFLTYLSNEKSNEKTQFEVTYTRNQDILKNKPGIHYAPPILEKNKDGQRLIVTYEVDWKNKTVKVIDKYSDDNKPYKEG
T4 chain 2: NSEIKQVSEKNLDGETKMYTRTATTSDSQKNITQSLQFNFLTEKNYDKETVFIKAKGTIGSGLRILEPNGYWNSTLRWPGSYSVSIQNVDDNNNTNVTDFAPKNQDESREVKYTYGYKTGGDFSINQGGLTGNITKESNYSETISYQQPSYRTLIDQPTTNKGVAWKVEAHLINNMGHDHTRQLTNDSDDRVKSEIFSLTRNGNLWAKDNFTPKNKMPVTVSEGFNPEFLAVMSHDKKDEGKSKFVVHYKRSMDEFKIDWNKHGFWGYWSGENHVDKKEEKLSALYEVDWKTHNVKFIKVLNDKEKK
In words: ForteBio.

The target in experiment [5] is T5, LukGH_MRSA252.
T5 chain 1: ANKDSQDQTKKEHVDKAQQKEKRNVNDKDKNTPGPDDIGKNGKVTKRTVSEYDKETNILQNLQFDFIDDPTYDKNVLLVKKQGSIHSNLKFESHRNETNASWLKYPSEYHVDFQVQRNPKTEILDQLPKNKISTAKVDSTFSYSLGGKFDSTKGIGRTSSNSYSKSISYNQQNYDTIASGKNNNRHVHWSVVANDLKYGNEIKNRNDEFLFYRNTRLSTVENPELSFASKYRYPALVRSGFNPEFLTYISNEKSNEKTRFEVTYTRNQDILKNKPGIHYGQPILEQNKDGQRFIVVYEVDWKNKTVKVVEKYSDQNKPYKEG
T5 chain 2: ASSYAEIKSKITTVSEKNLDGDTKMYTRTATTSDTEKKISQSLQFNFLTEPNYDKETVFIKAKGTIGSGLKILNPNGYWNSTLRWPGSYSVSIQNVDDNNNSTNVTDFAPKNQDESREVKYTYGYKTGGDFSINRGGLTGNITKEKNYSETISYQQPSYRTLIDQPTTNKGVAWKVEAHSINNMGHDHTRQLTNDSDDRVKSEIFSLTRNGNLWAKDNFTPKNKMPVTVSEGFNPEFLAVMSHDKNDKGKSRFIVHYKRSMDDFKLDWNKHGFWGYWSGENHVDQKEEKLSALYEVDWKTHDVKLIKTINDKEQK
Description: ForteBio.

The target of experiment [6] is T1, LukG_TCH1516. Description: MSD; Fab.
Experiment [7] addresses T2, LukGH of S. aureus USA300 TCH1516. In words: MSD; Fab.

B1: AB-31 (antibody, V domains shown)
VH: EVQLVESGGGLVQPGRSLRLSCAASGFTFYDYNMHWVRQAPGKGLEWVSGISWNSGSIAYADSVKGRFTISRDNAKNSLYLQMNSLRAEDTALYYCAKAQKGTAFDIWGQGTMVTVSS
VL: DIQMTQSPSSLSASVGDRVTITCQASQDITNYLNWYQQKPGKAPKLLIYDASNLETGVPSRFSGSGSGTDFTFTISSLQPEDIATYYCQQYPVYPPTFGGGTKVEIKR
In general, Kd refers to a measure of binding affinity in units of concentration. High values mean lower affinity, low ones higher affinity. In the case of B1, the Kd in experiment [1] is 9700 pM; in experiment [2], less than 100 pM; in experiment [3], 250 pM; in experiment [4] it was 240 pM; in experiment [5], 250 pM; in experiment [6], 120 pM. The molecule further returned a Kd in experiment [7] of 0.52 pM.

B2: AB-30-3 (antibody, V domains shown)
VH: QVQLVQSGAEVKKPGSSVKVSCKASGGTFSSYAISWVRQAPGQGLEWMGVIEPIFGFANYAQKFQGRVTITADESTSTAYMELSSLRSEDTAVYYCARDAGCSSTSCHKDVYFDYWGQGTLVTVSS
VL: DIQMTQSPSSLSASVGDRVTITCRASQSISSYLNWYQQKPGKAPKLLIYGASSLQSGVPSRFSGSGSGTDFTLTISSLQPEDFATYYCQQAYYPPWTFGGGTKVEIKR
For B2, the Kd amounted to 15500 pM in experiment [1]; 240 pM in experiment [2]; 390 pM in experiment [3]; 220 pM in experiment [4]; 280 pM in experiment [5]; 46 pM in experiment [6]. The Kd in experiment [7] amounted to 0.5 pM.
